B1: Bussuquara virus (nucleic acid)
DNA: AGTATTTCTTCTGCGTGAGACCATTGCGACAGTTCGTACCGGTGAGTTTTGACTTAACGCAGTGAGAAAAGTTTTCGAGGAAAGACGAGAAGCGAATTCTCTGA
modifications: chemistry not fully specified; the letters are possibly those of the target site
B2: Hepacivirus I (nucleic acid)
DNA: CAGGGTTTCGACCCTGGCCCGGATACCTATCGCCTTACGCCGAAAGGTAACGAGTAGGAGTCGGGTCCCCAGGCCCTTACCGCCACCAAGCCAGGTGGGGAGGTATGGGAGCCGGGGGGTGCAGCTGGTAGCTCCATGGGGGACGCCCCGTGAGCGGATGCTGCATCGATACCGGGTTAGCTCTCTGGGAGAGCGGCACTTGACACCACGAATCCGGGAACCGGACAATCGCCGGCGTGGGACGCGTTGCCTCCGTGGCCGAGCAATTTGGCATGCCCGTGGTGAAGAGTGATGGTGGGGGGGGGCCCCCCTTCCAGTACCGTACTGCCTGATAGGGTCTTGCCTCAAGCCCAGAGAGTCGAGGCTGAAAACCGCCATC
modifications: Hepacivirus I
B3: GB virus C/Hepatitis G virus (nucleic acid)
DNA: CCCCCGGCACTGGGTGCAAGCCCCAGAAACCGACGCCTATCTAAGTAGACGCAATGACTCGGCGCCGACTCGGCGACCGGCCAAAAGGTGGTGGATGGGTGATGACAGGGTTGGTAGGTCGTAAATCCCGGTCACCTTGGTAGCCACTATAGGTGGGTCTTAAGAGAAGGTTAAGATTCCTCTTGTGCCTGCGGCGAGACCGCGCACGGTCCACAGGTGTTGGCCCTACCGGTGGGAATAAGGGCCCGACGTCAGGCTCGTCGTTAAACCGAGCCCGTTACCCACCTGGGCAAACGACGCCCACGTACGGTCCACGTCGCCCTTCAATGTCTCTCTTGACCAATAGGCGTAGCCGGCGAGTTGACAAGGACCAGTGGGGGCCGGGGGCTTGGAGAGGGACTCCAAGTCCCGCCCTTCCCGGTGGGCCGGGAAATGC
B4: Rosavirus 2 GA7403 (nucleic acid, listed as Rosavirus sp.)
DNA: CCAGGCATGGCGTTAAACATGCATTCCCTTCCCCTAGTAACCTCCCTTCGCCCCTTCCCCACGTTGTACCCCCTCCGAGATGGCTGCTAAGGCGCTTGCTGCTACAGCAGTCTCGTGTTTCGGGTGTTATAAGTGCTTTCTTTTCCACTCCACTCCCTGCCTATGGGGAGCGGAACGGCCTTGTCTCGGTCGTTGCTTCTTGCAGATCTTCACCCCTCCAGGCTTTCTGGACTCGCCAGGGGTGGAGTAGTAGGCGCACTGTCTAAGTGAAGGTAGCAGTGTTGTTGGCGAAGAGTTGTGGACCTACTTTGAGTTTGTAGCGATCATCCAGAGCTAGCGGATCTCCCCACGCGGTAACGCGTGCCTCTAGGCCCAAAAGGCACGGTGTTCACAGCACCCTTTGGATGGCGGGGGTGCCCCCCTCCGCACTTAAAGTAGAAAAACAGCTTAGTAGTCAAATAACATGGCTTTCCTCAAGCATTCAGTGCTACATGGGACTGAAGGATGCCCAGAAGGTACCCGCAGGCAACGATAAGCTCACTGTGGATCTGATCTGGGGCCCTGGGCCAGGTGCTATACACCTGGTTAAAACCAAATCTGGTAGTCAGGGTTAAAAAACGTCTAAGTCCCACCCCCCCGGGGACGGGGGGTTCCCTTAAACCCTCAACTGACACC
B5: Culex theileri flavivirus (nucleic acid, listed as Flavivirus sp.)
DNA: ATATAAATCCCAGTTTGGTTAAACCTATTTCAAGGCTTAAGTTGTTTATTATTTTATCGCCGCTCGTGACTATAAAGTTGCCTAGCGGAGAGAGATAAAGAAGAAGGAGTTCAAGGCTCAGGGCAGGGCGCAAGTTCCCTGGTCCCTAGGCCGCTCGCAGGAAGGAGGAGTGAAGAAGAAGAAAGAGAAGGAGAGGACCACCGCCGAAAGAAGGCAGGTGCCTCACAAGAGGGCCAACCAGCGTGTTGGACCAGTGGCCAACGCCGGACGGCGTGGTGGCCTGCTGGGACGCCTGGGGATTGGATGGAGTGCCTTCCTACAGGAAGACATCGTTCAAGCCATC
B6: Zika Virus (nucleic acid, listed as Zika virus)
DNA: AGTTGTTGATCTGTGTGAGTCAGACTGCGACAGTTCGAGTCTGAAGCGAGAGCTAACAACAGTATCAACAGGTTTAATTTGGATTTGGAAACGAGAGTTTCTGGTC
modifications: chemistry not fully specified; the letters are possibly those of the target site
B7: Icavirus (nucleic acid)
DNA: CGAAGTTTAAGCTAAGCACCCTCGGGCGTTCCCGGATTATGTGATCACATCAATTTGATGGCTGGTCACCACGCAACGCCTGGAGAGATACTCTTACTTTTCTCTTAAGATCCCCGGTCATTTGACGCTTGTAGGATGATAGGGTTATTTTCCACTATAAATACTTTCATACTCTTGGATGTTCTATATCCAAGACGGGAGGACCTACCCCGTACCCCTTAGAGGTGAGATGCCAAGAACAGGCCCTTTCTGTTCTCTCGACAATGGCATCATAGGCAACAAGCATCACACCAAGATTGCTAAGTTTTGTTAAGAGTTCTTCAAGCTATAGGGTGGCTGTAGCGACCTTCTGATGCCTGCGGATTTCCCCACGGAGCGATCCGTGCCACAGGGGCCAAAAGCCACGGCTAACGCCCATCAGGAGCGGCACTTACCCCGTGCCCCACCCTTGAAACTTGAATGTTCACACTGGCTTCTCTCGGCTTTCTGAACTGTCTGCTTGTTGGGGCCCCGAAGGATGCCCTGGAGGTACCCCATTTTATGGGATCTGACCAGGGGACACCTCAGCTCTCTAAGTTGCTGGTGTTTAAAAAACGTCTAAGGGCCCCCACCCCTTAGGTGGAGGGATCCACCTTTCCTTTATTTTTTAAAACTCTTTTATGGTCACAATTGTTT
B8: Hepacivirus B (nucleic acid)
DNA: ACCACAAACACTCCAGTTTGTTACACTCCGCTAGGAATGCTCCTGGAGCACCCCCCCTAGCAGGGCGTGGGGGATTTCCCCTGCCCGTCTGCAGAAGGGTGGAGCCAACCACCTTAGTATGTAGGCGGCGGGACTCATGACGCTCGCGTGATGACAAGCGCCAAGCTTGACTTGGATGGCCCTGATGGGCGTTCATGGGTTCGGTGGTGGTGGCGCTTTAGGCAGCCTCCACGCCCACCACCTCCCAGATAGAGCGGCGGCACTGTAGGGAAGACCGGGGACCGGTCACTACCAAGGACGCAGACCTCTTTTTGAGTATCACGCCTCCGGAAGTAGTTGGGCAAGCCCACCTATATGTGTTGGGATGGTTGGGGTTAGCCATCCATACCGTACTGCCTGATAGGGTCCTTGCGAGGGGATCTGGGAGTCTCGTAGACCGTAGCAC
modifications: Hepacivirus B
B9: Equine Pegivirus 1 (nucleic acid, listed as Pegivirus sp.)
DNA: AGAATGGGGAGTTAACTCCTGGCACTGGCCCGAAGCATGAACTGATCGCGGTGGCAGGGTTCTTCGGGTAAATCCCGGCCGCGTGTTGTGATTGTGTTAGGGCAGGTGACAGTCGGCAGGGTCGACCCCCTGCTTCAGGACCACTGTCTTCCTGGACGACCGTTGCTGAAAAAGGGCCGCCACGGTCTGTAGCTCGCCGACGCTTCTAATTCAGGCCGGAGGACCACGCTCCGTAATCGAGCCCAAGTACTCAAACCCCAGCACCCCTGGGTCACGCCCTACGCCGCCCTTTTAACGCTTCGGCTAATAGGGTCTATCCGGCGGGTTGACAAAGGGCGCAGGGTTACCTGGTACTACGAGCTTGGGTGTCCCTGGGAGTAATCCCAGGGTGCC
B10: Rosavirus C NFSM6F (nucleic acid)
DNA: CAGGGAGATCTCCATGAATAATCTTTTCCACCCTCTTTAGCGTCTATGCTATTGAGGACGGGTTGGAGCCCCGTTGACCCAGCGTCAGAGTGTGTCGGTAGCAGGCTTTCTGCTCTCGCCCCATGCCGGCCACACCTCCCATTAGTGATGTGAAGGTTGTAAGTTACATGTGAAAAGGTTTCTAATAATTGAGCTGAATGTAGCGATTACCTAAGGTGAGCGGATTCCCCCACGTGGTAACACGTGCCTCTCAGGCCAAAAGCCAAGGTGTTAAAAGCACCCCTTAGGTAGGCCACTACCCCGTGGCCTCAGTTCTCTTAGAAGATTCACTTAGTAGTGTGTGCACTGGCAACTCTTAAGCAGAGCTAGTGAGTGGGCTAAGGATGCCCTGAAGGTACCCGCAGGTAACGTTAAGACACTGTGGATCTGATCAGGGGCTCGAGTGCTGAAGCTTTACAGAGGTAGCTCGAGTTAAAAAACGTCTATGCCCCTCCCCCACGGGAGTGGGGGTTCCCCCACACCAATTTTAGATTGCACT
modifications: Rosavirus C
B11: Equine hepacivirus (nucleic acid, listed as Hepacivirus sp.)
DNA: ACCTCCGTGCTATGCACGGTGCGTTGTCAGCGTTTTGCGCTTGCATGCGCTACACGCGTCGTCCAACGCGGAGGGATTCTTCCACATTACCATGTGTCACTCCCCCTATGGAGGGTTCCACCCCGCCCACACGGAAATAGGTTAACCATACCTATAGTACGGGTGAGCGGGTCCTCCTAGGGCCCCCCCGGCAGGTCGAGGGAGCTGAAATTCGTGAATCCGTGAGTACACGGAAATCGCGGCTTGAACGTCATACGTGACCTTCGGAGCCGAAATTTGGGCGTGCCCCACGAAGGAAGGCGGGGGCGGTGTTGGGCCGCCGCCCCCTTTATCCCACGGTCTGATAGGATGCTTGCGAGGGCACCTGCCGGTCTCGTAGACCATAGGAC
B12: Yokose virus (nucleic acid, listed as Yokose virus)
DNA: AGTAAATTTTGCGTGCTAGTCGCTGAGCGTCAGACCGCAAAGTGAGTTTTTAGTGATCTAAAGTGAGGAGTTATTCTTACTGTCATCAAACACTACAAATAAACACGTTGAAATTATTTCCGGAAGAACAACTGTCCGGAATCAAAGACG
B13: Hepacivirus J (nucleic acid)
DNA: GCCGCTCCCGAAAGGGAGTCCGGCGCGTCATCCCACTCCGAGGAGTGGGGTGGCGTCCCCGTGTGCCGGGGAACCATGAAGCCTAAGGGCATCCACATTTTAGAATGAACTTGAAGCTTCGTTTCGCTGGCCGGAAAGTCCTGGGTTCCCATGGCCAGGGTTCCGCAGGTGGGTAAATCCCGGTGGGGTTCCATCCAGGATATACGGCAGGCGGGCGTAGTCCGGCGGTTCGGACGACGTGTGGGTCGCCTACGGTGGATTGTTCACAGGATGGGCACTCCGGTGTGAATAGGCCCCGTCAGGGTGCGCTGACGTTAAACTCAGGCCTTGCCTGGTGTTCGGGGAGGATTGCAGGGCCACGCCGCCTCTAAGGGCCGTATGGCACAGTACTTCTTCGGGCGGGTTGTCAAGGCCCTCCAACGCGACACCAGTGCCTCGGCAGGCATGGGGCCACCCAGCTCGGCGTCCCGCACACAGACGGCGTAGGGGAAAATCAGCAATGTGACCCCGGGTGGCATTTTCCTTCTCTCTACTTCCATGCATGATCAACCGCAATC
modifications: Hepacivirus J

These molecules were tested on HEK293 cells. Conditions: luminescence from secreted Gluc in supernatant 24 hours after transfection of HEK293 cells; circular RNA encoding Gluc with the named IRES (UTR truncated to 675 nt).
Type: cell-based, human
In the case of B1, the Expression is reported as 8.20E+04.
In the case of B2, the Expression is reported as 7.50E+04.
For B3, the Expression was 1.36E+05.
B4 gave an Expression of 5.05E+06.
B5 showed an Expression of 8.52E+04.
Molecule B6 has an Expression of 8.61E+04.
Work on B7 yielded an Expression of 4.41E+06.
Molecule B8 has an Expression of 8.84E+04.
With B9 the Expression was 8.80E+04.
In the case of B10, the Expression is reported as 6.84E+05.
B11 gave an Expression of 8.40E+04.
In the case of B12, the Expression is reported as 8.55E+04.
B13 gave an Expression of 7.65E+04.
